Experimental data taken from patent US20260132182A1 (published 2026).
Starred links: 1 amine or outer side, 2 acyl side, 3 side chain; linkers in the order of their positions; H or OH if unused. Non-standard residues stand in square brackets, D forms with d. Groups on a side chain read outwards from the residue. *: point of attachment. C20 diacid = O=C(O)CCCCCCCCCCCCCCCCCCC(=O)*; C18 diacid = O=C(O)CCCCCCCCCCCCCCCCC(=O)*; C16 diacid = O=C(O)CCCCCCCCCCCCCCC(=O)*; γGlu = O=C(O)[C@H](CCC(=O)[*:2])N[*:1]; C14 diacid = O=C(O)CCCCCCCCCCCCC(=O)*; Desaminohistidyl = O=C(CCc1c[nH]cn1)*; Trx = NC[C@H]1CC[C@H](C(=O)O)CC1; AEEA = NCCOCCOCC(=O)O; Aib = CC(C)(N)C(=O)O

T1: human amylin-3 (a) receptor (human, UniProt P30988 25-474; O60896 24-148)
T1 sequence (looked up) 1: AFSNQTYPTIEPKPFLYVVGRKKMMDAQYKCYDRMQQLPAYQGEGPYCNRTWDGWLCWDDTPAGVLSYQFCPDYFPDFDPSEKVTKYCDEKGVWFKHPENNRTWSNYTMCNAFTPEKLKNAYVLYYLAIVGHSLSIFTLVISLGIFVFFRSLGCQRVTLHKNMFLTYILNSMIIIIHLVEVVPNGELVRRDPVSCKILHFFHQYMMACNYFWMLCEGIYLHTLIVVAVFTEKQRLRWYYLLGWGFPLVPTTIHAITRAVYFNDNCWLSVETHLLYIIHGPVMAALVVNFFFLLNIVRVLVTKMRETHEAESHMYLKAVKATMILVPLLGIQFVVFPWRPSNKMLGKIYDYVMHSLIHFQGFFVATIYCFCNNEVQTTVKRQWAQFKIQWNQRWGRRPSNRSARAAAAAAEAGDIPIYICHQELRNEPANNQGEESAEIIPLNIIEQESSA
T1 sequence (looked up) 2: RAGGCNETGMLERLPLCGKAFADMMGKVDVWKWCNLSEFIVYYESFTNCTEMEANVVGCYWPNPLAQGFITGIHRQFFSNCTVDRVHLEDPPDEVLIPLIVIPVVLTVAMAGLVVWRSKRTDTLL


What was measured:
human GLP-1 receptor = human GLP-1 receptor (human, UniProt P43220 24-463); assay: cell-based or functional assay
[1] = target: T1, human amylin-3 (a) receptor; assay: cell-based or functional assay

Binder	Human GLP-1R potency [EC50 (pM)] (human GLP-1 receptor) [pM]	Human AmyR3 potency [EC50 (pM)] [1] [pM]
Compound 0052 (peptide) peptide: H[Aib]EGTFTSDVSSYLEGQAAK([AEEA-AEEA-γGlu-C18 diacid])EFIAWLVRGRGGGGGGGGGEASELSTAALGRLSAELHELATLPRTETGSGSP-NH2	17	19.4
Compound 0438 (not fully specified (residue 31)) peptide: H[Aib]EGTFTSDVSSYLEEQAAREFIEWLVRGRKEASELSTAALGRLSAELHELATLPRTETGSGSP-NH2	11.8	27.5
Compound 0475 (peptide) peptide: HAEGTFTSDK([AEEA-AEEA-γGlu-C16 diacid])SSYLEEK([AEEA-AEEA-γGlu-C16 diacid])AAREFIEWLVRGRGEASELSTAALGRLSAELHELATLPRTETGSGSP-NH2	70.4	66.8
Compound 0472 (peptide) peptide: HAEGTFTSDVSSYLEEK([AEEA-AEEA-γGlu-C18 diacid])AAREFIEWLVRGRGEASELSTAALGRLSAELHELATLPRTETGSGSP-NH2	2.8	24
Compound 0483 (peptide) peptide: H[Aib]EGTFTSDVSK([AEEA-AEEA-γGlu-C16 diacid])YLEEQAVREFIAK([AEEA-AEEA-γGlu-C16 diacid])LVRGRGGGEASELSTAALGRLSAELHELATLPRTETGSGSP-NH2	33.7	36.8
Compound 0473 (peptide) peptide: HWEGTFTSDVSSYLEEK([AEEA-AEEA-γGlu-C20 diacid])AAREFIEWLVRGRGEASELSTAALGRLSAELHELATLPRTETGSGSP-NH2	3.1	16.2
Compound 0440 (peptide) peptide: H[Aib]EGTFTSDK([AEEA-AEEA-γGlu-Trx-C20 diacid])SSYLEEQAAREFIEWLVRGRGEASELSTAALGRLSAELHELATLPRTETGSGSP-NH2	5.7	10.4
Compound 0474 (peptide) peptide: HAEGTFTSDVSSYLEEK([AEEA-AEEA-γGlu-C20 diacid])AAREFIEWLVRGRGEASELSTAALGRLSAELHELATLPRTETGSGSP-NH2	2.9	21.8
Compound 0484 (peptide) peptide: H[Aib]EGTFTSDVSK([AEEA-AEEA-γGlu-C14 diacid])YLEEQAVREFIAK([AEEA-AEEA-γGlu-C14 diacid])LVRGRGGGEASELSTAALGRLSAELHELATLPRTETGSGSP-NH2	72.8	32.5
Compound 0051 (peptide) peptide: [Desaminohistidyl]AEGTFTSDVSSYLEEQAAREFIAWLVRGRK([AEEA-AEEA-γGlu-C18 diacid])EASELSTAALGRLSAELHELATLPRTETGSGSP-NH2	14.3	19.5
Compound 0439 (not fully specified (residue 21)) peptide: H[Aib]EGTFTSDVSSYLEEQAARKFIEWLVRGRGEASELSTAALGRLSAELHELATLPRTETGSGSP-NH2	8.3	10.7
Compound 0482 (peptide) peptide: HAEGTFTSDVSK([AEEA-AEEA-γGlu-C16 diacid])YLEEQAVREFIAK([AEEA-AEEA-γGlu-C16 diacid])LVRGRGGGEASELSTAALGRLSAELHELATLPRTETGSGSP-NH2	36.5	31.8
